# Reference: publication PMC6949223
# What was measured:
# [1] = Transwell migration, MDA-MB-231 and BT-549 rescue lines; settings: glycan lost; control: SGK196-WT re-expressed in shSGK196 cells
# [2] = protein stability in MDA-MB-231 and BT-549 (Fig. S2C); settings: glycan lost; control: SGK196-WT
# [3] = Matrigel Transwell invasion, MDA-MB-231 and BT-549 rescue lines; settings: glycan lost; control: SGK196-WT re-expressed in shSGK196 cells
# [4] = anti-HA immunofluorescence, MDA-MB-231 and BT-549; settings: glycan lost; control: SGK196-WT
protein,measurement,setting,value
SGK196: SGK196-4NQ (protein) parent chain: MEKQPQNSRRGLAPREVPPAVGLLLIMALMNTLLYLCLDHFFIAPRQSTVDPTHCPYGHFRIGQMKNCSPWLSCEELRTEVRQLKRVGEGAVKRVFLSEWKEHKVALSQLTSLEMKDDFLHGLQMLKSLQGTHVVTLLGYCEDDNTMLTEYHPLGSLSNLEETLNLSKYQNVNTWQHRLELAMDYVSIINYLHHSPVGTRVMCDSNDLPKTLSQYLLTSNFSILANDLDALPLVNHSSGMLVKCGHRELHGDFVAPEQLWPYGEDVPFHDDLMPSYDEKIDIWKIPDISSFLLGHIEGSDMVRFHLFDIHKACKSQTPSERPTAQDVLETYQKVLDTLRDAMMSQAREML,other: suppression of cell migration,[1],decreases
same,degradation_or_half_life,[2],no change
same,other: suppression of cell invasion,[3],decreases
same,localisation_or_trafficking,[4],no change
